Test results from patent US20110239327A1, “Nematicidal Effects of Cysteine Proteinases and Methods of Use Thereof to Treat Nematode Infestation” (priority 2007, published 2011).
Entries after “also recorded” stand apart in the source; their conditions may differ.

What was measured:
[1] = test system: Meloidogyne spp. J2s; assay: In vitro mobility of Meloidogyne spp. J2s exposed to plant cysteine proteinases; format: cell-based, M. incognita or M. javanica
Procedure: Eggs of M. incognita race 1 from North Carolina State University, USA, and M. javanica from Portugal were collected from the roots of infected tomato plants grown in a glasshouse at 23° C. in a 16:8 h light-dark regime. Eggs were extracted using 1% hypochlorite (NaClO) solution (Hussey and Barker, 1973) or by picking egg masses from the infected roots. M. incognita and M. javanica were both used in the experiments and produced similar results. Juveniles (J2) were hatched from the eggs and egg masses in water. Globodera rostochiensis cysts were washed extensively in distilled water. Hatched J2s were obtained by incubating cysts in distilled water for 4 days followed by exposure to potato root diffusate (PRD).
(§1) Approximately 1000 J2s (second juvenile stage) of M. incognita or M. javanica were incubated per well of a 48-well plate with the following active enzyme concentrations (determined by E-64 titration) of papain dissolved in distilled water containing 16 mM L-cysteine (to activate the cysteine proteinase): 1.5 μM, 3 μM, 6.25 μM, 12.5 μM, 25 μM, 50 μM, 75 μM and 100 μM. Control wells contained J2s and distilled water with and without 16 mM L-cysteine, or J2s and 1 mM E-64, with and without 50 μM (active enzyme) papain, which had been preincubated for 25 mins at 40° C. Each enzyme concentration and the controls were set up in duplicate (n=2) or triplicate (n=3). The number of active J2s per well was counted prior to the addition of papain, and then the J2s were incubated in the dark at room temperature for 3 h. The number of mobile J2s per well was counted after 60, 120 and 180 mins. The nematode surfaces were examined for signs of damage using a light microscope (Zeiss Axioskop) at ×20, ×40 and ×100 magnification and photographs were taken with a Xillix Microimager. The same procedure was followed when setting up further experiments to compare the effects of 25 μM papain, 25 μM crude papaya latex (0.625 g/ml), 25 μM stem bromelain (0.18 g/ml) and 25 μM actinidin (active enzyme concentrations) with M. incognita, M. javanica or G. rostochiensis.
The data from the in vitro motility experiments were analysed using a repeated measures analysis of variance (as implemented in the GenStat procedure AREPMEASUREMENTS) to compare the overall treatment means, the overall means at each sample time, and the treatment by time interaction. Numbers of nematodes moving at each of the repeated sampling times, 60, 120 and 180 mins, were expressed as a proportion of those moving initially at time 0 (i.e. this latter number was assumed to be the actual number of nematodes initially in the dish). The proportions were transformed to logits prior to analysis. […]

[2] = test system: Meloidogyne spp. J2s; assay: Light microscopy and SEM of cuticle damage of Meloidogyne spp. J2s; format: cell-based, M. incognita or M. javanica
Procedure: as §1
The effects on the J2 cuticle were more closely examined by scanning electron microscopy (SEM). Approximately 2000 J2s were used per enzyme or control treatment. These J2s were added to each of four 5 ml tubes and centrifuged at 2500 rpm 4° C. for 5 mins. The supernatant was removed and the J2s were resuspended with 500 μl of 100 μM papain, 100 μM actinidin (active enzyme concentrations) or distilled water with and without 16 mM L-cysteine (the enzyme dilutions were prepared with 16 mM L-cysteine dissolved in distilled water). The nematodes were incubated in the dark at ambient temperature for 4 h before centrifugation as above. The J2s were immediately fixed with 2.5% glutaraldehyde in 0.15M phosphate buffer, pH 7.2 for 1 h at room temperature and were then centrifuged as before prior to washing for 1 h in 0.15M phosphate buffer, pH 7.2 at 4° C. These J2s were then prepared for SEM as described previously by Stepek et al. (2005).

B1: papain (protein, UniProt P00784 134-345, looked up)
Papain: IPEYVDWRQKGAVTPVKNQGSCGSCWAFSAVVTIEGIIKIRTGNLNEYSEQELLDCDRRSYGCNGGYPWSALQLVAQYGIHYRNTYPYEGVQRYCRSREKGPYAAKTDGVRQVQPYNEGALLYSIANQPVSVVLEAAGKDFQLYRGGIFVGPCGNKVDHAVAAVGYGPNYILIKNSWGTGWGENGYIRIKRGTGNSYGVCGLYTSSFYPVKN
notes: cysteine proteinase from Carica papaya, Merops C01.001, Sigma P3125
proportion of active Meloidogyne spp. J2s relative to control ([1]; 25 μM active enzyme): Reductions in the proportion of active worms were evident | nematodes mobile after 180 mins ([1]; 50 μM active papain, with or without pre-incubation with 1 mM E-64): None | mobility (proportion of mobile J2s) of Meloidogyne spp. J2s ([1]; papain 1.5-100 μM active enzyme, all doses combined, 60-180 mins, vs combined controls): decreased the mobility; also recorded: decreased linearly | activity of Meloidogyne J2s relative to combined controls ([1]; papain at active enzyme concentrations of 1.5 μM and 3 μM): caused reductions in the activity | visible effects on the surface of the nematodes ([2]; papain 1.5 μM and 3 μM, light microscopy): no visible effects on the surface | digestion of the cuticle at the anterior end (light micrographs) ([2]; papain 6.25 μM and 100 μM active enzyme, 3 h): Digestion of the cuticle was evident | appearance of the internal structures (light micrographs) ([2]; papain 100 μM, 3 h): abnormal granular appearance of the internal structures | active enzyme concentration causing blistering of the cuticle ([2]; papain, light microscopy x40 and x100, anterior end): above 6.25 μM
